Laboratory results: article PMC8865655

Biological target: Cry2-mCh-METTL3 (wild type, full-length construct), Q86U44
Assay: FRET or BRET; FLIM-FRET in live HEK293T; EGFP fusion as donor, Cry2-mCh-METTL3 (mCherry) as acceptor; photons collected from inside condensates formed after blue light illumination (30 seconds)
Details: remark: other sources report otherwise

Sequence of Cry2-mCh-METTL3 (wild type, full-length construct), Q86U44 (Q86U44 whole entry, the tested form may be a part): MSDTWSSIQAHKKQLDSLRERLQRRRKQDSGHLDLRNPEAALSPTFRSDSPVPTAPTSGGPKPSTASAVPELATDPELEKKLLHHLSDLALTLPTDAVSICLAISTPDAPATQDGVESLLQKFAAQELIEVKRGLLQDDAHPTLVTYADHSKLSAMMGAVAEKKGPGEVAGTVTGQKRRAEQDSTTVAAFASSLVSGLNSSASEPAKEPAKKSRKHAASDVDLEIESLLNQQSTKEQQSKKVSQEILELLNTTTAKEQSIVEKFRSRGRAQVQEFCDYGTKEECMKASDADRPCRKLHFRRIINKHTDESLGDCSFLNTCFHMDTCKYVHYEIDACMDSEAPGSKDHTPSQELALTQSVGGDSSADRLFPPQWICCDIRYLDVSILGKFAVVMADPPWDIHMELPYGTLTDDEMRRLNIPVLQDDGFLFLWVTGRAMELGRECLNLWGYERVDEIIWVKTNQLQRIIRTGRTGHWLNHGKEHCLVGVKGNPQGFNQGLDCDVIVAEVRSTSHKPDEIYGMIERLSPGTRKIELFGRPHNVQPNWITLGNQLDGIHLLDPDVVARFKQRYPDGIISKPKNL

- EGFP fluorescence lifetime (FLIM-FRET): 2.01 ns
B1: EGFP-WTAP, Q15007 1-396 (natural protein)
chain: MTNEEPLPKKVRLSETDFKVMARDELILRWKQYEAYVQALEGKYTDLNSNDVTGLRESEEKLKQQQQESARRENILVMRLATKEQEMQECTTQIQYLKQVQQPSVAQLRSTMVDPAINLFFLKMKGELEQTKDKLEQAQNELSAWKFTPDSQTGKKLMAKCRMLIQENQELGRQLSQGRIAQLEAELALQKKYSEELKSSQDELNDFIIQLDEEVEGMQSTILVLQQQLKETRQQLAQYQQQQSQASAPSTSRTTASEPVEQSEATSKDCSRLTNGPSNGSSSRQRTSGSGFHREGNTTEDDFPSSPGNGNKSSNSSEERTGRGGSGYVNQLSAGYESVDSPTGSENSLTHQSNDTDSSHDPQEEKAVSGKGNRTVGSRHVQNGLDSSVNVQGSVL
